Residue numbers refer to the chain shown, from its start.
T1: His-tagged human PTK7 protein (human, UniProt Q13308 31-704)
T1 construct: Bought protein; also called hPTK7-His; not shown: His tag
T1 sequence: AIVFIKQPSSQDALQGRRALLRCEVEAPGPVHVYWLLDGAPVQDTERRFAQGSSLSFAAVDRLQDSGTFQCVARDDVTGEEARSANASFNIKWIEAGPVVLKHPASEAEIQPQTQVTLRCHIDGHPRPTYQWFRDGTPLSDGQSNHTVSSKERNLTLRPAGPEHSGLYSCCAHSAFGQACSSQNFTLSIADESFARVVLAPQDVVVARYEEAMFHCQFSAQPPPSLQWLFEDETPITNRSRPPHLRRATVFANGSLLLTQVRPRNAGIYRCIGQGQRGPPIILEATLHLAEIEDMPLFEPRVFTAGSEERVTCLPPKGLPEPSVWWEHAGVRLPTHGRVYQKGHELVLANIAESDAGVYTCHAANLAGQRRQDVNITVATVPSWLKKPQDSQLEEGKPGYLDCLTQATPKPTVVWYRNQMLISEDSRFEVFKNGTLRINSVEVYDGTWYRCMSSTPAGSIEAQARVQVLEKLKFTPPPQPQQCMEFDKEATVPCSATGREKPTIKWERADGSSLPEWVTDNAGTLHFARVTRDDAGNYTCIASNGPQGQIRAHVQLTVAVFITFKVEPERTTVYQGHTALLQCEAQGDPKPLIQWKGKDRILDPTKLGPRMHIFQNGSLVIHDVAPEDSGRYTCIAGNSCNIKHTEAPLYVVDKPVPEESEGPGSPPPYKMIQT

T2: human PTK7 on human cancer cell lines (human, UniProt Q13308 31-1070)
T2 construct: Endogenous PTK7 of human tumour cell lines; also called PTK7 on A-431, NCI-H520, NCI-N87, SK-OV-3, BT-20, HCC1954, NCI-H226, NCI-H358, HCT116, PC-3, NCI-H292, NCI-H1975 cells
T2 sequence: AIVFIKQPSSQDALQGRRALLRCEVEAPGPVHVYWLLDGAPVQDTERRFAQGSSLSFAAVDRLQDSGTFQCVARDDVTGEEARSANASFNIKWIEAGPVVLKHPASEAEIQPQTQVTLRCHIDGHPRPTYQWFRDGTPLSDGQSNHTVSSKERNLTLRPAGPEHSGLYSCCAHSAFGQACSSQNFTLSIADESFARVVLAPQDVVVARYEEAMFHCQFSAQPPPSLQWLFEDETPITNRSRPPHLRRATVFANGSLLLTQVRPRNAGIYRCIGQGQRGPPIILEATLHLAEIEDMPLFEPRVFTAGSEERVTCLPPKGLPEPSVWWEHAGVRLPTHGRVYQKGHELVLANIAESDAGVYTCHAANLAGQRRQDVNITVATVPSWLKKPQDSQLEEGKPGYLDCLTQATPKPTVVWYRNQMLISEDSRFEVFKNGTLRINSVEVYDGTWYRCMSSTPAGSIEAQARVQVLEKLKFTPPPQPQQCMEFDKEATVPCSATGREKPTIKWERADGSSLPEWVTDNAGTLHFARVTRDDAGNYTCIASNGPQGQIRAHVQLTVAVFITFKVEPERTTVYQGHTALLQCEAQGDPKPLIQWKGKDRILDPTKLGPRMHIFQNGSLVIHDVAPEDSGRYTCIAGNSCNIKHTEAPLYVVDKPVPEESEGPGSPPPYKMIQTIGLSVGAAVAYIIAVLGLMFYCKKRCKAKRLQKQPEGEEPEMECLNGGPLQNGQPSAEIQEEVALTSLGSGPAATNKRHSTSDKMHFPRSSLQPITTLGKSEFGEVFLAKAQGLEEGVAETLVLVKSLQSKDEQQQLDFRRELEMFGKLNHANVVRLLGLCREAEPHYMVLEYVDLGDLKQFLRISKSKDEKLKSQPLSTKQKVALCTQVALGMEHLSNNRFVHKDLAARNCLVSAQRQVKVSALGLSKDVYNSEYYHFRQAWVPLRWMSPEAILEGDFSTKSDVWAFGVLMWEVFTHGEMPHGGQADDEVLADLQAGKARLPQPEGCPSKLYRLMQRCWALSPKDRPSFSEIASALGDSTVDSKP

B1: 1F2 (antibody, V domains shown)
VH: QVQLVQSGGGLVQPGGSLRLSCAASGFTFSRYEMNWVRQAPGKGLEWVSYINSIGSAINYADSVKGRFTISRDNAKNSLYLQMRSLRAEDTAVYYCVREDNWNPGYWGQGTLVTVSS
VL: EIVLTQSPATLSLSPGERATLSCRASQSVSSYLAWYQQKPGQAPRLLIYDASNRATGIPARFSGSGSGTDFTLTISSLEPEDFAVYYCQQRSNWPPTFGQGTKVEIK
notes: also called anti-PTK7 antibody 1F2
B2: 1A11 (antibody, V domains shown)
VH: QVQLVQSGPGLVKPSETLSLTCTVSGGSINSYYWNWIRQPPGKGLEWIGYIYYSGSTNYNPSLKSRVTISVDTSKNQFSLKLSSVTAADTAVYYCARDPHDYIRGHFDLWGRGTLFTVSS
VL: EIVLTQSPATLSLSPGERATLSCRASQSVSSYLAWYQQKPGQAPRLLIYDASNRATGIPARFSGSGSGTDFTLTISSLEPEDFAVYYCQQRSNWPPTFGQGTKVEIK
notes: also called anti-PTK7 antibody 1A11
B3: 1A7 (antibody, human IgG1, V domains shown)
VH: QVQLVESGGGVVQPGRSLRLSCAASGFTFSNYGMHWVRQAPGKGLEWVAVIYYDGSNKFYADSVKGRFTISRDNSKNTLYLQMSSLRAEDTAVYYCARDVAPPGSRAEYFHHWGQGTLVTVSS
VL: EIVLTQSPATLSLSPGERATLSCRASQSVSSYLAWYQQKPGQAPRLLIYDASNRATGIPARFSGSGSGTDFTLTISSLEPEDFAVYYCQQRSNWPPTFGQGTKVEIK
notes: also called anti-PTK7 antibody 1A7
B4: 2F5 (antibody, V domains shown)
VH: B3 VH with A23V, V50I, F59Y, S84N, P102A, P103A, F110L
VL: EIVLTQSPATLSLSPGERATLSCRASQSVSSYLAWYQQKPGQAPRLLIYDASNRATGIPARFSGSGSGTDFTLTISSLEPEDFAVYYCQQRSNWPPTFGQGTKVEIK
notes: also called anti-PTK7 antibody 2F5
B5: 2A5 (antibody, V domains shown)
VH: B3 VH with E6Q, Y52W, S56R, F59Y, S84N, P103A, H111Q, H112N
VL: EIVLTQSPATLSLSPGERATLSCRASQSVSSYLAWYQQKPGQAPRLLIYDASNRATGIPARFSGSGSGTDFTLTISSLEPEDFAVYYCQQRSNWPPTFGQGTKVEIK
notes: also called anti-PTK7 antibody 2A5
B6: 2D11 (antibody, V domains shown)
VH: B3 VH with N31S, Y52F, F59Y, S84N, A92S, P102A, H111Q, H112N
VL: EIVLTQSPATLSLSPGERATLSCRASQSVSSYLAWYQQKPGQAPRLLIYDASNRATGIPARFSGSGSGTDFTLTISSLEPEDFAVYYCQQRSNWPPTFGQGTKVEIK
notes: also called anti-PTK7 antibody 2D11
B7: 3C4 (antibody, V domains shown)
VH: QVQLEQSRAEVKKPGESLRISCKGSGYSFTSYWISWVRQMPGKGLEWMGRIDPSDSYTNYNPSFQGHVTISADKSISTAYLQWSSLKASDTAMYYCARRDGSYFDFDYWGQGTLVTVSS
VL: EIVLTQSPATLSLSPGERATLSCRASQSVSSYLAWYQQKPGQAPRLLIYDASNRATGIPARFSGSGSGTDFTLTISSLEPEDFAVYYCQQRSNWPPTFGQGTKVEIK
notes: also called anti-PTK7 antibody 3C4
B8: 3E6 (antibody, V domains shown)
VH: B7 VH with E5V, Q6E, R8G, K23R, N59K, N61S, S102D
VL: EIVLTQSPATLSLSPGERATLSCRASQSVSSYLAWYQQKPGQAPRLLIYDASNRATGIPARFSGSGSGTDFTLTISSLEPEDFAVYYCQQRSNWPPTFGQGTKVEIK
notes: also called anti-PTK7 antibody 3E6

These binders were tested against T1, His-tagged human PTK7 protein (assay: BLI Octet binning on hPTK7-His; competitor 1A7).
Description: (§1) Relative positions of target protein epitope between a pair of purified anti-PTK7 antibodies were analyzed by Biolayer Interferometry (BLI) using ForteBio Octet system at 30° C. A total of […] purified antibodies were used: 1A7, 1A11, 1F2, 2A5, 2D11, 2F5, 3C4 and 3E6.
(§2) 1×HBS-EP+ buffer (10 mM 4-(2-hydroxyethyl)-1-piperazineethanesulfonic acid (HEPES), 150 mM NaCl, 3 mM ethylenediaminetetraacetic acid (EDTA) and 0.05% P20, pH7.4) diluted from HBS-EP+ buffer (10×) was used as the running buffer throughout the experiment. His-tagged human PTK7 protein was captured at a flow rate of 10 μL/min, and 200 nM of antibody (Analyte 1) was injected at a flow rate of 30 μL/min to bind the ligand. Another antibody (Analyte 2) was injected under the same conditions to determine whether the binding of different antibodies interfered with each other. The binding time was 300 s for each antibody.
(§3) The binding value of each antibody was obtained using Data Analysis HT 12.0. To quantify the interference of one antibody binding to another, a binding ratio was calculated to compare each pair of antibodies. The binding ratio is defined as the binding value of the second antibody (Analyte 2), divided by the binding value of the first antibody (Analyte 1). […] In general, antibody pairs that interfere with each other have the same or overlapping epitopes.

Binder	binding ratio
B1	0.64
B2	0.71
B3	0.08
B4	0.12
B5	-0.02
B6	0.17
B7	0.87
B8	0.71

Each binder was assayed against T2, human PTK7 on human cancer cell lines (assay: flow cytometry, HCT116 cells, Ab 5 ug/mL).
Description: (§4) The binding activity of anti-PTK7 antibodies to cancer cell lines was verified by flow cytometry. […] Purified anti-PTK7 antibody with a concentration of 5 μg/mL was added to each well and was incubated at 4° C. for 30 minutes. […] The cells were collected, and the mean fluorescence intensity (MFI) was determined. Human IgG1 was used as ISO control.

Binder	MFI
B1	149000
B2	260000
B3	115000
B4	133000
B5	234000
B6	287000
B7	230000
B8	339000

What follows are binders tested against T1, His-tagged human PTK7 protein (assay: BLI Octet binning on hPTK7-His; competitor hu24 analog).
Description: as §1, §2, §3

Binder	binding ratio
B1	0.95
B2	0.97
B3	0.2
B4	0.19
B5	0.04
B6	0.21
B7	1.22
B8	0.98

The binders below were run against T2, human PTK7 on human cancer cell lines (assay: flow cytometry, NCI-N87 cells, Ab 5 ug/mL).
Description: as §4

Binder	MFI
B1	108000
B2	158000
B3	75700
B4	69400
B5	152000
B6	217000
B7	139000
B8	180000

Each binder was assayed against T2, human PTK7 on human cancer cell lines (assay: flow cytometry, PC-3 cells, Ab 5 ug/mL).
Description: as §4

Binder	MFI
B1	34900
B2	67200
B3	32500
B4	32400
B5	60700
B6	73000
B7	66700
B8	94600

The binders below were run against T1, His-tagged human PTK7 protein (assay: BLI Octet binning on hPTK7-His; competitor 1A11).
Description: as §1, §2, §3

Binder	binding ratio
B1	0.64
B2	-0.01
B3	0.74
B4	0.71
B5	0.62
B6	0.83
B7	0.84
B8	0.71

Each binder was assayed against T2, human PTK7 on human cancer cell lines (assay: flow cytometry, HCC1954 cells, Ab 5 ug/mL).
Description: as §4

Binder	MFI
B1	99100
B2	172000
B3	118000
B4	121000
B5	179000
B6	211000
B7	187000
B8	207000

Source: patent US20260250421A1 (BIOCYTOGEN PHARMACEUTICALS BEIJING, published 2026)
